Here are results for 2 molecules from patent US20040086848A1 (University of Texas, published 2004).

For data set [1], the target named is T1, endogenous RANK of RAW264.7 cells (mouse, UniProt O35305 31-625).
T1 construct: whole, on cells; Immunoprecipitated from cell lysates with anti-RANK; The species follows from the mouse cell line
T1 sequence (looked up): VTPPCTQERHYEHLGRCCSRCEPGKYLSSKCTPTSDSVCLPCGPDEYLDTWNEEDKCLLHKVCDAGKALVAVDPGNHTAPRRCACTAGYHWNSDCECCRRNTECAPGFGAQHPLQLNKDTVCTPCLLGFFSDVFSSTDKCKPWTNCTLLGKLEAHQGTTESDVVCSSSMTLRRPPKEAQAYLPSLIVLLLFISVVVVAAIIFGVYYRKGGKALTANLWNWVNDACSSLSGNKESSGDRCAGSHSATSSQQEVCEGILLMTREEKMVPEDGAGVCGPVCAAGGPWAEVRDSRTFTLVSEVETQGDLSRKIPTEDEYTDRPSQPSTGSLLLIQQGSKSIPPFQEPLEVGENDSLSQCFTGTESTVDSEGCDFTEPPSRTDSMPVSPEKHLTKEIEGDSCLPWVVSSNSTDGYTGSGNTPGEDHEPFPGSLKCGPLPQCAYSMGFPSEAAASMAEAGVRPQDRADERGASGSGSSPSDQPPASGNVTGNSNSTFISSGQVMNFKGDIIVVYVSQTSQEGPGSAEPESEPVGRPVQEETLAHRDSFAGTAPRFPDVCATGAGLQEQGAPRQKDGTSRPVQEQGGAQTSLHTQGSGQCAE
Put plainly: interaction with endogenous RANK in RAW cells (data not shown).

Data set [2] deals with the molecule itself. The data set is described as follows: gel filtration chromatography.

B1: RAIN mutant K90/91A (from pCMV3×FLAG-hRAIN, stably expressed in RAW cells) (other, human, UniProt Q96GX9 1-242, looked up)
chain: MSGCDAREGDCCSRRCGAQDKEHPRYLIPELCKQFYHLGWVTGTGGGISLKHGDEIYIAPSGVQKERIQPEDMFVCDINEKDISGPSPSAALKKSQCTPLFMNAYTMRGAGAVIHTHSKAAVMATLLFPGREFKITHQEMIKGIKKCTSGGYYRYDDMLVVPIIENTPEEKDLKDRMAHAMNEYPDSCAVLVRRHGVYVWGETWEKAKTMCECYDYLFDIAVSMKKVGLDPSQLPVGENGIV
notes: range 1-242; not shown: 3×FLAG tag of pCMV3×FLAG-14 at the C-terminus
As to B1, the binding result in data set [1] and in data set [2] was “binds” each time.

B2: RAIN mutant R194A (from pCMV3×FLAG-hRAIN, stably expressed in RAW cells) (other, human, UniProt Q96GX9 1-242, looked up)
chain: MSGCDAREGDCCSRRCGAQDKEHPRYLIPELCKQFYHLGWVTGTGGGISLKHGDEIYIAPSGVQKERIQPEDMFVCDINEKDISGPSPSKKLKKSQCTPLFMNAYTMRGAGAVIHTHSKAAVMATLLFPGREFKITHQEMIKGIKKCTSGGYYRYDDMLVVPIIENTPEEKDLKDRMAHAMNEYPDSCAVLVRAHGVYVWGETWEKAKTMCECYDYLFDIAVSMKKVGLDPSQLPVGENGIV
notes: as for B1
In the case of B2, the binding result in data set [1] and in data set [2] was “binds” each time.
